Assay results published in US20190100588A1 (VISTERRA, published 2019).
Numbering of substitutions follows the chain as printed.

T1: cell surface CD138 (human CD138) (human, UniProt P18827 23-310)
T1 construct: whole, on cells; also called membrane CD138
T1 sequence (looked up): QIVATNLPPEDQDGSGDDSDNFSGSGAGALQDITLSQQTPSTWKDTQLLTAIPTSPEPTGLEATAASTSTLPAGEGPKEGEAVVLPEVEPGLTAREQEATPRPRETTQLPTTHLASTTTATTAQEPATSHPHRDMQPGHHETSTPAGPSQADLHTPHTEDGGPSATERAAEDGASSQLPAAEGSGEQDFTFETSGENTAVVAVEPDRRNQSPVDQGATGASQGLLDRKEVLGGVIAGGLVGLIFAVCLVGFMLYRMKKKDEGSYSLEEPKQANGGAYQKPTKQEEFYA

T2: Pep5 (human)
T2 construct: also called Peptide 5
T2 peptide: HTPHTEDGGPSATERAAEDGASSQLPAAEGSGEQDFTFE

T3: Pep4 (human)
T3 construct: also called Peptide 4
T3 peptide: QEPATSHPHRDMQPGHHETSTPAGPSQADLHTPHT

T4: Pep6 (human)
T4 construct: also called Peptide 6; Peptide-6
T4 peptide: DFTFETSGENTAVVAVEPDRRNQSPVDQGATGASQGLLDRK

T5: Pep3 (human)
T5 construct: also called Peptide 3
T5 peptide: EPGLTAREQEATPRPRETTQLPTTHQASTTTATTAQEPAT

T6: Peptide 2a (human)
T6 construct: also called Pep2a
T6 peptide: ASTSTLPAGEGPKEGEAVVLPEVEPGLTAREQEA

T7: rCD138 (recombinant CD138) (human, UniProt P18827 23-254, limits assumed)
T7 sequence (looked up): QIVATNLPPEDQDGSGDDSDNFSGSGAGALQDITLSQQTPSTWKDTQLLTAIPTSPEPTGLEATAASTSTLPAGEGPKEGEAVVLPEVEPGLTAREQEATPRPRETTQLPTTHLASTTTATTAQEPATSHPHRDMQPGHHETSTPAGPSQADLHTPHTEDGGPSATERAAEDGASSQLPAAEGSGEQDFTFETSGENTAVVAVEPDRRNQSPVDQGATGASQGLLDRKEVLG

T8: recombinant CD138 extracellular domain (soluble CD138) (human, UniProt P18827 23-250)
T8 construct: also called soluble CD138 extracellular domain; biotinylated CD138
T8 sequence: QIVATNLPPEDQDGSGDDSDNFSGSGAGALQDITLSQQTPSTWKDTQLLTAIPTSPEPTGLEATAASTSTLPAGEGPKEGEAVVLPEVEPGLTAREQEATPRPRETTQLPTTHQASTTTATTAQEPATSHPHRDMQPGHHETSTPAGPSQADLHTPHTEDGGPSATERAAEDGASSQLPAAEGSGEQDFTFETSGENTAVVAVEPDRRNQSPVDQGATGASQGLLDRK

B1: antibody 2610 (antibody, V domains shown)
VH: QVQLHQPGTSLVKPGASVKLSCKASGYSFSSYYMHWVKQRPGQGLEWIGTIHPSDSTTNCNQKFKGKATLTVDKSSRTAYMQLNSLTFEDSAVYYCANFVYWGQGTSVTVSS
VL: DIVITQDELSNPVTSGDSVSISCRSSKSLLYKDGKTYLNWFLQRPGQSPQLLIYVVSTRASGVSDRFSGSGSGTDFTLEISRVKAEDVGVYYCQQLVEYPYTFGGGTKLEIK
B2: antibody 2710 (antibody, V domains shown)
VH: B1 VH with S28T
VL: B1 VL
B3: antibody 617 (antibody, V domains shown)
VH: QVQLQLPGAELVKPGASVKVSCKASAYTFTSYWMHWVKQRPGQGLEWIGRIHPSDSDTNYNQNFKGKATLTVDKSSNTAYMQLSSLTSEDSAVYYCATGFSFWGQGTLVTVSA
VL: DIVMTQSHKFMSTSVGDRVSITCKASQDVSTTVAWYQQKPGQSPKLLIYSASYRYTGVPDRFTGSGSGTDFTFTISSVQAEDLAVYYCQQHYSTRPTFGGGTKLEIK
notes: Mouse hybridoma-derived anti-CD138 antibody
B4: antibody 603 (antibody, V domains shown)
VH: B3 VH with L4V, L6V, A26G, V37M, Q39K, N77S, Y95F
VL: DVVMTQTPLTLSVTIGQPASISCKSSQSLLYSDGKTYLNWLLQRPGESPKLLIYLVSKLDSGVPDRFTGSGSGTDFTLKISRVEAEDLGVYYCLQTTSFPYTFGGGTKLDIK
notes: as for B3
B5: antibody 624 (antibody, V domains shown)
VH: B3 VH with L4V, A26G, Q39K, N77S, S84T, S91F, A97S
VL: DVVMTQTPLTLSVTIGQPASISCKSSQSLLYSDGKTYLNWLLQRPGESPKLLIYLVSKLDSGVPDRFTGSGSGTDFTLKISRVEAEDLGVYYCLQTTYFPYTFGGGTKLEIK
notes: Mouse hybridoma-derived; afucosylated form used for ADCC
B6: antibody 619 (antibody, V domains shown)
VH: QIQLVQSGPELKKPGETVKISCKASGYTFTTYGMSWVKQAPGKGLKWMGWINTYSGVPTYADDFKGRFAFSLETSASTAYLQINNLKNEDTATYFCAREGSTMVTRYYFDYWGQGTTLTVSS
VL: DIVMTQAAPSVPVTPGESVSISCRSSKSLLHSNGNTYLYWFLQRPGQSPQVLIYRMSNLASGVPDRFSGSGSGTAFTLRISRVEAEDVGVYYCMQHLESPYTFGGGTKLEIK
notes: as for B3
B7: antibody 616 (antibody, V domains shown)
VH: B6 VH with Q3H, K19R, G44A, A97T
VL: B6 VL with V51L, Y92H, K108T
notes: as for B3
B8: antibody 623 (antibody, V domains shown)
VH: B6 VH with Y94F
VL: B6 VL with V51L, S99Y, Y101S
notes: as for B3
B9: antibody 604 (antibody, V domains shown)
VH: QVQLQQPGAELVKPGASVKVSCKASGYNFINYWMHWVKQRPGQGLEWIGRIHPSDSYTNYNQKFKGKATLTVDKSSSTAYMQLSSLTSEDSAVYYCASPISTLYWGQGTTLTVSS
VL: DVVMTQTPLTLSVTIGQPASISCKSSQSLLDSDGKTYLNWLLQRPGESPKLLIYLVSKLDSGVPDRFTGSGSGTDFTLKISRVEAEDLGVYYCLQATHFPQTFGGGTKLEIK
notes: as for B3
B10: antibody 2510 (antibody, human IgG1, V domains shown)
VH: B1 VH with S28N, C60Y
VL: B1 VL
B11: antibody 2910 (antibody, V domains shown)
VH: B1 VH with S28T, C60Y
VL: B1 VL
B12: antibody 1409 (antibody, human IgG1, V domains shown)
VH: EVQLVESGGGLVQPKGSLKLSCAASGFTFNTYAMHWVRQAPGKGLEWVARIRSKSSNYATYYADSVKDRFTISRDDSQSMLYLQMNNLKTEDTAMYYCVRELRLRYAMDYWGQGTSVTVSS
VL: DILMTQTPLTLSVTIGQPASISCKSSQSLLYTNGKTYLNWLLQRPGQSPKRLIYLVSKLDSGVPDRFSGSGSGTDFTLKISRVEAEDLGVYYCLQSTHFPLTFGAGTKLELK
notes: Chimeric monoclonal antibody, murine variable regions and human IgG1

Molecular target: T1, cell surface CD138 (human CD138)
Experiment: form of CD138 not named

B1: binds.
B2: binds.

Molecular target: T2, Pep5
Experiment: ELISA, coated peptide

Going from B3 to B4, the “ELISA O.D.” value falls from 0.066 O.D to 0.053 O.D.

B5 and B6 are the same in “ELISA O.D.” value: 0.066 O.D for the first, 0.066 O.D for the second.

Going from B7 to B8, the “ELISA O.D.” value rises from 0.061 O.D to 0.08 O.D.

In the case of B9, the “ELISA O.D.” value is reported as 0.067 O.D.

Molecular target: T3, Pep4
Experiment: ELISA, coated peptide

Compared with B3, B4 is lower in “ELISA O.D.” value: 0.091 O.D for the first, 0.051 O.D for the second.

Going from B5 to B6, the “ELISA O.D.” value falls from 0.069 O.D to 0.066 O.D.

First: B7
Second: B8
The “ELISA O.D.” value of the first is lower: 0.065 O.D for the first, 0.082 O.D for the second.

With B9 the “ELISA O.D.” value was 0.058 O.D.

Molecular target: T4, Pep6
Experiment: ELISA, coated peptide

Compared with B3, B4 is higher in “ELISA O.D.” value: 0.809 O.D for the first, 0.863 O.D for the second.

Compared with B5, B6 is lower in “ELISA O.D.” value: 1.68 O.D for the first, 1.37 O.D for the second.

First: B7
Second: B8
The “ELISA O.D.” value of the first is lower: 1.62 O.D for the first, 1.67 O.D for the second.

B9 was tested, and the “ELISA O.D.” value was 0.939 O.D.

Molecular target: T5, Pep3
Experiment: ELISA, coated peptide

First: B4
Second: B5
The “ELISA O.D.” value of the first is lower: 0.047 O.D for the first, 0.069 O.D for the second.

Going from B6 to B7, the “ELISA O.D.” value falls from 0.067 O.D to 0.063 O.D.

First: B8
Second: B9
The “ELISA O.D.” value of the first is higher: 0.086 O.D for the first, 0.058 O.D for the second.

Molecular target: T1, cell surface CD138 (human CD138)
Experiment: flow cytometry, U266 cells, afucosylated antibody
Procedure: (§1) Binding of anti-CD138 antibodies to CD138 was tested by flow cytometry binding assay. Multiple myeloma cell lines RPMI 8226 (ATCC) and U266 (ATCC) were grown in RPMI1640 with 10% FBS. On the day of experiment, 0.25×10⁶ cells were washed with FACS buffer (PBS+0.5% BSA) and incubated with dilution series of anti-CD138 antibodies (starting 10 ug/ml) or hybridoma supernatants (starting with undiluted supernatant) for 30 min at 4° C. followed by incubation with goat-anti-human/mouse conjugated APC antibodies (BioLegend) for 30 min at 4° C. Fluorescence was detected using flow cytometer.
The afucosylated antibody variants were then tested for capacity to induce ADCC, as described above.

B10: binds.
B11: binds.

Molecular target: T6, Peptide 2a
Experiment: ELISA (FIG. 18B)

B10: binds.
B1: binds.

Molecular target: T4, Pep6
Experiment: ELISA (FIG. 18C)

B10: binds.
B1: binds.

Molecular target: T1, cell surface CD138 (human CD138)
Experiment: flow cytometry, U266 cells
Procedure: as §1

Going from B4 to B5, the “% cells Positive” value rises from 95.8% to 96.7%.

First: B6
Second: B7
The “% cells Positive” value of the first is lower: 3.7% for the first, 6.1% for the second.

Compared with B8, B9 is higher in “% cells Positive” value: 7% for the first, 96% for the second.

Molecular target: T7, rCD138 (recombinant CD138)
Experiment: ELISA, coated rCD138

First: B4
Second: B5
The “ELISA O.D.” value of the first is lower: 0.585 O.D for the first, 1.52 O.D for the second.

Going from B6 to B7, the “ELISA O.D.” value rises from 0.882 O.D to 1.18 O.D.

First: B8
Second: B9
The “ELISA O.D.” value of the first is higher: 0.803 O.D for the first, 0.61 O.D for the second.

Molecular target: T1, cell surface CD138 (human CD138)
Experiment: flow cytometry, RPMI 8226 cells
Procedure: as §1

First: B4
Second: B5
The “% cells Positive” value of the first is lower: 81.4% for the first, 89.3% for the second.

Compared with B6, B7 is lower in “% cells Positive” value: 85% for the first, 18.3% for the second.

First: B8
Second: B9
The “% cells Positive” value of the first is lower: 63.8% for the first, 82.5% for the second.

Molecular target: T8, recombinant CD138 extracellular domain …
Experiment: ELISA (FIG. 18A)

B10: binds.
B1: binds.

Molecular target: T6, Peptide 2a
Experiment: peptide binding ELISA
Procedure: (§2) As above, the monoclonal antibodies were tested for binding to a series of CD138 peptides in four-fold serial dilutions starting at 1 μg/mL. […] HRP-conjugated anti-human IgG-Fc antibody (1:5000 dilution) was used for detection. Antibody B-B4 was also tested as a reference. […] Reference antibody B-B4 only bound to Peptide 2a.

B12: binds.

Molecular target: T4, Pep6
Experiment: peptide binding ELISA
Procedure: as §2

B12: binds.
